Reference: PMC4919469 (2016)

B1: N-WASP G protein-binding domain (GBD) (residues 197–255) (domain or fragment)
chain: KKKLTKADIGTPSNFQHIGHVGWDPNTGFDVNNLDPELKKLFDLCGISEAQLKDKETSK
B2: GST-ACK GBD (domain or fragment)
chain: GLSAQDISQPLQNSFIHTGHGDSDPRHCWGFPDRIDELYLGN
B3: GST-PAK (domain or fragment)
chain: ISLPSDFEHTIHVGFDAVTGEFTGMPEQWARLLQTSNITKSEQK
B4: His-SNAP-TOCA1 ΔSH3 (residues 1–480) (domain or fragment)
chain: MSWGTELWDQFDNLEKHTQWGIDFLDKYAKFVKERLEIEQNYAKQLRNLVKKYCPKRSAKDEEPRFTSCLSFYNILNELNDYAGQREVVAEEMGHRVYAEIMRYSNDIKGERKSHLQEGRKAQQYLDMCLKQMDNSKRKFERECREAEKAQQTYERLDNDSNATKSDVEKAKQQLHLRTHMADESKNEYAAQLQNYNAEQHKHFYIVIPQVYKHLQEMDERRTVKLSECYKGFADAERKVIPIISKCLEGMVQAAKSVDERRDSQIVVDCFKSGFEPNGDYPFEDYSQHIYRTVSDGTISTPKQESLKPDPRVTVGKAKGKLWLFGKKPKGPALEDFSHLPPEQRRKRLQQRIDELSRELQKEMDQKDALNKMKDVYEKNPQMGDPSSLHPKIAETTSNIERLRMEIHKNEAWLSEVEGKVSQRSERRHSAEANHLVAQGRESPEGSYTEDANQEGRVQPQPHAHPEFDDEFDDDEPLPA
B5: His-SNAP-TOCA1 (full-length X. tropicalis TOCA1) (natural protein)
chain: MSWGTELWDQFDNLEKHTQWGIDFLDKYAKFVKERLEIEQNYAKQLRNLVKKYCPKRSAKDEEPRFTSCLSFYNILNELNDYAGQREVVAEEMGHRVYAEIMRYSNDIKGERKSHLQEGRKAQQYLDMCLKQMDNSKRKFERECREAEKAQQTYERLDNDSNATKSDVEKAKQQLHLRTHMADESKNEYAAQLQNYNAEQHKHFYIVIPQVYKHLQEMDERRTVKLSECYKGFADAERKVIPIISKCLEGMVQAAKSVDERRDSQIVVDCFKSGFEPNGDYPFEDYSQHIYRTVSDGTISTPKQESLKPDPRVTVGKAKGKLWLFGKKPKGPALEDFSHLPPEQRRKRLQQRIDELSRELQKEMDQKDALNKMKDVYEKNPQMGDPSSLHPKIAETTSNIERLRMEIHKNEAWLSEVEGKVSQRSERRHSAEANHLVAQGRESPEGSYTEDANQEGRVQPQPHAHPEFDDEFDDDEPLPAIGHCKSLYPFDGNNEGTLAMKEGEVLYIIEEDKGDGWTRARKQNGEEGYVPTSYIDITLEKNSKGAVTYI

What was measured:
[1] = target: T1, Cdc42Δ7Q61L (human, UniProt P60953 1-184, Q61L); assay: competition SPA vs GST-WASP GBD
Target sequence in this assay (P60953 1-184 Q61L): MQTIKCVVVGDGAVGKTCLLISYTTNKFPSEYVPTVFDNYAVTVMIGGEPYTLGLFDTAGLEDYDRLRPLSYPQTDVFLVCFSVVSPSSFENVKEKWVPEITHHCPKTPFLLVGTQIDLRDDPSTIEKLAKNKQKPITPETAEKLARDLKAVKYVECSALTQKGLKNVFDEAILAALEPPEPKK

[2] = target: T1, Cdc42Δ7Q61L; assay: direct SPA, GTP-bound Cdc42
[3] = target: T1, Cdc42Δ7Q61L; assay: direct SPA, GTP-bound Cdc42; remark: listed apart in the source

Binder	Kd [2] [nM]	other results
B1		Kd [1]: 16 nM
B2	46	
B3		Kd [3]: 60 nM
B4	> 1000	
B5	> 1000	
